Data taken from CN113521276A (JIANGSU QUANXIN BIOMEDICAL CO LTD, dated 2021).

Target: T1, 人干扰素α受体1(IFNAR1) (human, UniProt P17181 28-436)
T1 construct: Soluble antigen run over captured antibody in the Biacore assay; also called 人IFNAR1; Human Interferon alpha/beta Receptor 1
T1 sequence: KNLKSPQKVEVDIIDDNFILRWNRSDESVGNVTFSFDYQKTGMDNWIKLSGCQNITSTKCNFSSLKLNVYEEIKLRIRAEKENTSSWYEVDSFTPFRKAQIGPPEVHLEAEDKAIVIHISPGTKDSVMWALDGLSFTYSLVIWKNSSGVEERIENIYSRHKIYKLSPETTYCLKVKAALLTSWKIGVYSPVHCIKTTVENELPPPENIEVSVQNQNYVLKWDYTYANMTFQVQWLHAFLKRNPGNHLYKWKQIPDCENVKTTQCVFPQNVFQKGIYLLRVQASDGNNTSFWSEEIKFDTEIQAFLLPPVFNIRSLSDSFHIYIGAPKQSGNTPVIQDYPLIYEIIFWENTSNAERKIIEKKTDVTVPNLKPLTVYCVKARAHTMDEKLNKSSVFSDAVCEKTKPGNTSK
Assay: SPR, Biacore T200, antibody captured on Protein A chip, antigen in solution, 25℃, 1:1 model, mean of three runs

- Kd: 0.108 nM
- koff: 3.76e-05 s⁻¹
- kon: 347000 M⁻¹ s⁻¹
B1: QX006N(HZD1203-45-IgG4.1) (antibody, V domains shown)
VH: EVQLVESGGGLVQPGGSLRLSCAASGFSLSSYYMTWVRQAPGKGLEWVSVINVYGGTYYASWAKGRFTISRDNSKNTLYLQMNSLRAEDTAVYYCAREDVAVYMAIDLWGQGTLVTVSS
VL: AIQMTQSPSSLSASVGDRVTITCQASQSISNQLSWYQQKPGKAPKLLIYDASSLASGVPSRFSGSRSGTKFTLTISSLQPEDFATYYCLGIYGDGADDGIAFGGGTKVEIK
notes: Humanised rabbit antibody from clone 1203#; also called 抗人干扰素α受体1(IFNAR1)单克隆抗体
